According to the supplement of paper PMC9112550, “Optimization of the antimicrobial peptide Bac7 by deep mutational scanning” (BMC Biology, 2022):

Each sequence was assayed on Escherichia coli TOP10 (assay: shrunken log2 fold change of peptide-encoding DNA abundance (4.5 h post-induction vs induction); higher = less antimicrobial activity (less host growth inhibition)). Conditions: time post-induction: 4.5 h; library: site-saturation at positions 5, 18, 19, 20.
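Note: peptides expressed intracellularly from a pBAD plasmid library in pooled LB shake-flask culture, induced with 0.3% L-arabinose, DNA abundance read by NGS, three biological replicates, DESeq2 with apeglm shrinkage.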

Sequence	shrunken log2 fold change
RRIRRRPPRLPRPRPRPLGYPRP	0.26
RRIRNRPPRLPRPRPRPTTLPRP	-0.294
RRIRTRPPRLPRPRPRPILMPRP	-0.306
RRIRCRPPRLPRPRPRPEHIPRP	-0.218
RRIRDRPPRLPRPRPRPLRMPRP	0.409
RRIRQRPPRLPRPRPRPEAVPRP	0.217
RRIRQRPPRLPRPRPRPWPGPRP	0.116
RRIRLRPPRLPRPRPRPQDCPRP	0.0274
RRIRTRPPRLPRPRPRPYIKPRP	-1.22
RRIRKRPPRLPRPRPRPTEMPRP	0.25
RRIRPRPPRLPRPRPRPRIPPRP	0.243
RRIRPRPPRLPRPRPRPDAWPRP	0.513
RRIRPRPPRLPRPRPRPQDKPRP	-0.00457
RRIRCRPPRLPRPRPRPKCGPRP	0.0778
RRIRTRPPRLPRPRPRPRVRPRP	2.2
RRIRRRPPRLPRPRPRPTCVPRP	0.455
RRIRSRPPRLPRPRPRPLPSPRP	0.255
RRIRVRPPRLPRPRPRPDFNPRP	-0.344
RRIRARPPRLPRPRPRPAKKPRP	-0.0777
RRIRWRPPRLPRPRPRPTVEPRP	0.0565
RRIRLRPPRLPRPRPRPLEKPRP	-0.0425
RRIRYRPPRLPRPRPRPNDDPRP	-0.0641
RRIRDRPPRLPRPRPRPGKSPRP	0.0637
RRIRTRPPRLPRPRPRPTAGPRP	0.59
RRIRVRPPRLPRPRPRPKFLPRP	-0.00678
RRIRYRPPRLPRPRPRPTVGPRP	0.0163

Sequence	shrunken log2 fold change
RRIRWRPPRLPRPRPRPTHLPRP	0.0424
RRIRHRPPRLPRPRPRPCHEPRP	-0.0201
RRIRDRPPRLPRPRPRPDRNPRP	-0.0216
RRIRERPPRLPRPRPRPSVYPRP	-0.493
RRIRHRPPRLPRPRPRPAYRPRP	-0.00502
RRIRFRPPRLPRPRPRPFWMPRP	-0.254
RRIRRRPPRLPRPRPRPDECPRP	0.746
RRIRERPPRLPRPRPRPPPPPRP	0.646
RRIRRRPPRLPRPRPRPMALPRP	5.63e-05
RRIRVRPPRLPRPRPRPTDNPRP	-0.363
RRIRARPPRLPRPRPRPDVVPRP	-0.101
RRIRARPPRLPRPRPRPIQEPRP	0.116
RRIRERPPRLPRPRPRPVTVPRP	-0.0984
RRIRARPPRLPRPRPRPNELPRP	0.343
RRIRYRPPRLPRPRPRPCGVPRP	2.83
RRIRVRPPRLPRPRPRPDLLPRP	-0.224
RRIRPRPPRLPRPRPRPGEFPRP	0.318
RRIRARPPRLPRPRPRPKLSPRP	0.138
RRIRRRPPRLPRPRPRPDFIPRP	0.0171
RRIRWRPPRLPRPRPRPTMKPRP	-0.0612
RRIRFRPPRLPRPRPRPEEVPRP	0.0815
RRIRHRPPRLPRPRPRPYKNPRP	-0.646
RRIRSRPPRLPRPRPRPTMKPRP	-0.128
RRIRTRPPRLPRPRPRPFWHPRP	0.23
RRIRYRPPRLPRPRPRPIETPRP	-0.0177
